Target: autoantibodies to BRAF purified from the sera of RA patients

B1: BRAF (protein)
chain: LQKSPGPQRERKSSSSSEDRNRMKTLGRRDSSDDWEIPDGQITVGQRIGSGSFGTVYKGKWHGDVAVKMLNVTAPTPQQLQAFKNEVGVLRKTRHVNILLFMGYSTKPQLAIVTQWCEGSSLYHHLHIIETKFEMIKLIDIARQTAQGMDYLHAKSIIHRDLKSNNIFLHEDLTVKIGDFGLATVKSRWSGSHQFEQLSGSILWMAPEVIRMQDKNPYSFQSDVYAFGIVLYELMTGQLPYSNINNRDQIIFMVGRGYLSPDLSKVRSNCPKAMKRLMAECLKKKRDERPLFPQILASIELLARSLPKIHRSASEPSLNRAGFQTEDFSLYACASPKTPIQAGGYGAFPVH
- phosphorylation of MEK1 by BRAF: 80% of anti-BRAF autoantibodies activate phosphorylation of MEK1 by BRAF in vitro
